Assay results reported in KR20170011863A.

Substrate: B형 간염 바이러스의 표면 항원 (Hepatitis B surface antigen; HBsAg) (Hepatitis B virus)
Assay: cell-based or functional assay

B1: GC1102 (HBsAg에 대한 인간 HBV 항체) (antibody, V domains shown)
VH: QVKLLESGGGLVKPGGSLRLSCSASGFSLTKYKMTWVRQAPGKGLEWVSSISSTSRDIDYADSVKGRFTISRDNAKNSLFLQMSSLRVDDTAVYYCTRDGWLWGWDVRSNYYYNALDVWGQGTTVTVSS
VL: ELVMTQSPSSLSASVGDRVTITCRASQGIYNSIAWYQQKPGKAPKLLLYSTSTLLSGVPSRFSGSGSGTDYTLTITNLQPEDFATYYCQQYFVTPETFGQGTKVEIKR
EC50 (effective concentration) of inhibition of HBV infection of HepG2-NTCP cells: 0.015 µg/mL
EC50 (effective concentration) of inhibition of HBV infection of HepG2-NTCP cells, converted to molar concentration (150 kDa): 0.1 nM
